# According to patent US20140357577A1, “HIV Membrane Fusion Inhibitors” (priority 2011, published 2014):
# Starred links: 1 amine or outer side, 2 acyl side, 3 side chain; linkers in the order of their positions; H or OH if unused. Positions of bridges follow the written chain, without caps; N, C: chain ends. Non-standard residues stand in square brackets, D forms with d. *: point of attachment. cholesteryl‑oxycarbonylmethyl = CC(C)CCC[C@@H](C)[C@H]1CC[C@H]2[C@@H]3CC=C4C[C@@H](OC(=O)C*)CC[C@]4(C)[C@H]3CC[C@]12C; B21 = 2,7-dimethylnaphtyl, c1cc2ccc(C[*:2])cc2cc1C[*:1]; pXylylene = c1cc(C[*:2])ccc1C[*:1]; Palmitoyl = CCCCCCCCCCCCCCCC(=O)*; Suc = O=C(CCC(=O)[*:2])[*:1]; hCys = N[C@@H](CCS)C(=O)O; Hexanoyl = CCCCCC(=O)*; B1 = not defined here; Butyryl = CCCC(=O)*
# B1: peptide 80 (peptide)
# peptide: Ac-A[hCys]YAA[hCys]IEALIRKAQEQQEKNEAALR-NH2
# modifications: linker 2-6 via B21
# SMILES: CC[C@H](C)[C@H](NC(=O)[C@@H]1CCSCc2ccc3ccc(cc3c2)CSCC[C@H](NC(=O)[C@H](C)NC(C)=O)C(=O)N[C@@H](Cc2ccc(O)cc2)C(=O)N[C@@H](C)C(=O)N[C@@H](C)C(=O)N1)C(=O)N[C@@H](CCC(=O)O)C(=O)N[C@@H](C)C(=O)N[C@@H](CC(C)C)C(=O)N[C@H](C(=O)N[C@@H](CCCNC(=N)N)C(=O)N[C@@H](CCCCN)C(=O)N[C@@H](C)C(=O)N[C@@H](CCC(N)=O)C(=O)N[C@@H](CCC(=O)O)C(=O)N[C@@H](CCC(N)=O)C(=O)N[C@@H](CCC(N)=O)C(=O)N[C@@H](CCC(=O)O)C(=O)N[C@@H](CCCCN)C(=O)N[C@@H](CC(N)=O)C(=O)N[C@@H](CCC(=O)O)C(=O)N[C@@H](C)C(=O)N[C@@H](C)C(=O)N[C@@H](CC(C)C)C(=O)N[C@@H](CCCNC(=N)N)C(N)=O)[C@@H](C)CC
# B2: peptide 79 (peptide)
# peptide: Ac-A[hCys]YAA[hCys]IEALIRKAQEQQEKNEAALR-NH2
# modifications: linker 2-6 via B21
# SMILES: CC[C@H](C)[C@H](NC(=O)[C@@H]1CCSCc2ccc3ccc(cc3c2)CSCC[C@H](NC(=O)[C@H](C)NC(C)=O)C(=O)N[C@@H](Cc2ccc(O)cc2)C(=O)N[C@@H](C)C(=O)N[C@@H](C)C(=O)N1)C(=O)N[C@@H](CCC(=O)O)C(=O)N[C@@H](C)C(=O)N[C@@H](CC(C)C)C(=O)N[C@H](C(=O)N[C@@H](CCCNC(=N)N)C(=O)N[C@@H](CCCCN)C(=O)N[C@@H](C)C(=O)N[C@@H](CCC(N)=O)C(=O)N[C@@H](CCC(=O)O)C(=O)N[C@@H](CCC(N)=O)C(=O)N[C@@H](CCC(N)=O)C(=O)N[C@@H](CCC(=O)O)C(=O)N[C@@H](CCCCN)C(=O)N[C@@H](CC(N)=O)C(=O)N[C@@H](CCC(=O)O)C(=O)N[C@@H](C)C(=O)N[C@@H](C)C(=O)N[C@@H](CC(C)C)C(=O)N[C@@H](CCCNC(=N)N)C(N)=O)[C@@H](C)CC
# B3: peptide 88 (peptide)
# peptide: Suc-ECYLRCIEELIRKAQEQQEKNEAALRGSGK(Palmitoyl)-NH2
# modifications: linker 2-6 via pXylylene
# SMILES: CCCCCCCCCCCCCCCC(=O)NCCCC[C@H](NC(=O)CNC(=O)[C@H](CO)NC(=O)CNC(=O)[C@H](CCCNC(=N)N)NC(=O)[C@H](CC(C)C)NC(=O)[C@H](C)NC(=O)[C@H](C)NC(=O)[C@H](CCC(=O)O)NC(=O)[C@H](CC(N)=O)NC(=O)[C@H](CCCCN)NC(=O)[C@H](CCC(=O)O)NC(=O)[C@H](CCC(N)=O)NC(=O)[C@H](CCC(N)=O)NC(=O)[C@H](CCC(=O)O)NC(=O)[C@H](CCC(N)=O)NC(=O)[C@H](C)NC(=O)[C@H](CCCCN)NC(=O)[C@H](CCCNC(=N)N)NC(=O)[C@@H](NC(=O)[C@H](CC(C)C)NC(=O)[C@H](CCC(=O)O)NC(=O)[C@H](CCC(=O)O)NC(=O)[C@@H](NC(=O)[C@@H]1CSCc2ccc(cc2)CSC[C@H](NC(=O)[C@H](CCC(=O)O)NC(=O)CCC(=O)O)C(=O)N[C@@H](Cc2ccc(O)cc2)C(=O)N[C@@H](CC(C)C)C(=O)N[C@@H](CCCNC(=N)N)C(=O)N1)[C@@H](C)CC)[C@@H](C)CC)C(N)=O
# B4: peptide 5 (peptide)
# peptide: Ac-ANYAALIEALIRKAQEQQEKNEAALR-NH2
# B5: peptide 84 (peptide)
# peptide: Ac-ACYAACIEALIRAAREQQEKNEAALR-NH2
# modifications: linker 2-6 via pXylylene
# SMILES: CC[C@H](C)[C@H](NC(=O)[C@H](CC(C)C)NC(=O)[C@H](C)NC(=O)[C@H](CCC(=O)O)NC(=O)[C@@H](NC(=O)[C@@H]1CSCc2ccc(cc2)CSC[C@H](NC(=O)[C@H](C)NC(C)=O)C(=O)N[C@@H](Cc2ccc(O)cc2)C(=O)N[C@@H](C)C(=O)N[C@@H](C)C(=O)N1)[C@@H](C)CC)C(=O)N[C@@H](CCCNC(=N)N)C(=O)N[C@@H](C)C(=O)N[C@@H](C)C(=O)N[C@@H](CCCNC(=N)N)C(=O)N[C@@H](CCC(=O)O)C(=O)N[C@@H](CCC(N)=O)C(=O)N[C@@H](CCC(N)=O)C(=O)N[C@@H](CCC(=O)O)C(=O)N[C@@H](CCCCN)C(=O)N[C@@H](CC(N)=O)C(=O)N[C@@H](CCC(=O)O)C(=O)N[C@@H](C)C(=O)N[C@@H](C)C(=O)N[C@@H](CC(C)C)C(=O)N[C@@H](CCCNC(=N)N)C(N)=O
# B6: peptide 78 (peptide)
# peptide: Ac-A[hCys]YAA[hCys]IEALIRAAQEQQEKNEAALR-NH2
# modifications: linker 2-6 via B21
# SMILES: CC[C@H](C)[C@H](NC(=O)[C@H](CC(C)C)NC(=O)[C@H](C)NC(=O)[C@H](CCC(=O)O)NC(=O)[C@@H](NC(=O)[C@@H]1CCSCc2ccc3ccc(cc3c2)CSCC[C@H](NC(=O)[C@H](C)NC(C)=O)C(=O)N[C@@H](Cc2ccc(O)cc2)C(=O)N[C@@H](C)C(=O)N[C@@H](C)C(=O)N1)[C@@H](C)CC)C(=O)N[C@@H](CCCNC(=N)N)C(=O)N[C@@H](C)C(=O)N[C@@H](C)C(=O)N[C@@H](CCC(N)=O)C(=O)N[C@@H](CCC(=O)O)C(=O)N[C@@H](CCC(N)=O)C(=O)N[C@@H](CCC(N)=O)C(=O)N[C@@H](CCC(=O)O)C(=O)N[C@@H](CCCCN)C(=O)N[C@@H](CC(N)=O)C(=O)N[C@@H](CCC(=O)O)C(=O)N[C@@H](C)C(=O)N[C@@H](C)C(=O)N[C@@H](CC(C)C)C(=O)N[C@@H](CCCNC(=N)N)C(N)=O
# B7: peptide 82 (peptide)
# peptide: Suc-ECYLRCIEELIRKAQEQQEKNEAALRGSGC(cholesteryl‑oxycarbonylmethyl)-NH2
# modifications: linker 2-6 via pXylylene
# SMILES: CC[C@H](C)[C@H](NC(=O)[C@H](CC(C)C)NC(=O)[C@H](CCC(=O)O)NC(=O)[C@H](CCC(=O)O)NC(=O)[C@@H](NC(=O)[C@@H]1CSCc2ccc(cc2)CSC[C@H](NC(=O)[C@H](CCC(=O)O)NC(=O)CCC(=O)O)C(=O)N[C@@H](Cc2ccc(O)cc2)C(=O)N[C@@H](CC(C)C)C(=O)N[C@@H](CCCNC(=N)N)C(=O)N1)[C@@H](C)CC)C(=O)N[C@@H](CCCNC(=N)N)C(=O)N[C@@H](CCCCN)C(=O)N[C@@H](C)C(=O)N[C@@H](CCC(N)=O)C(=O)N[C@@H](CCC(=O)O)C(=O)N[C@@H](CCC(N)=O)C(=O)N[C@@H](CCC(N)=O)C(=O)N[C@@H](CCC(=O)O)C(=O)N[C@@H](CCCCN)C(=O)N[C@@H](CC(N)=O)C(=O)N[C@@H](CCC(=O)O)C(=O)N[C@@H](C)C(=O)N[C@@H](C)C(=O)N[C@@H](CC(C)C)C(=O)N[C@@H](CCCNC(=N)N)C(=O)NCC(=O)N[C@@H](CO)C(=O)NCC(=O)N[C@@H](CSCC(=O)O[C@H]1CC[C@@]2(C)C(=CC[C@H]3[C@@H]4CC[C@H]([C@H](C)CCCC(C)C)[C@@]4(C)CC[C@@H]32)C1)C(N)=O
# B8: peptide 85 (peptide)
# peptide: Butyryl-ECYLACIEELIRKAQEQQEKNEAALR-NH2
# modifications: linker 2-6 via pXylylene
# SMILES: CCCC(=O)N[C@@H](CCC(=O)O)C(=O)N[C@H]1CSCc2ccc(cc2)CSC[C@@H](C(=O)N[C@H](C(=O)N[C@@H](CCC(=O)O)C(=O)N[C@@H](CCC(=O)O)C(=O)N[C@@H](CC(C)C)C(=O)N[C@H](C(=O)N[C@@H](CCCNC(=N)N)C(=O)N[C@@H](CCCCN)C(=O)N[C@@H](C)C(=O)N[C@@H](CCC(N)=O)C(=O)N[C@@H](CCC(=O)O)C(=O)N[C@@H](CCC(N)=O)C(=O)N[C@@H](CCC(N)=O)C(=O)N[C@@H](CCC(=O)O)C(=O)N[C@@H](CCCCN)C(=O)N[C@@H](CC(N)=O)C(=O)N[C@@H](CCC(=O)O)C(=O)N[C@@H](C)C(=O)N[C@@H](C)C(=O)N[C@@H](CC(C)C)C(=O)N[C@@H](CCCNC(=N)N)C(N)=O)[C@@H](C)CC)[C@@H](C)CC)NC(=O)[C@H](C)NC(=O)[C@H](CC(C)C)NC(=O)[C@H](Cc2ccc(O)cc2)NC1=O
# B9: peptide 89 (peptide)
# peptide: Ac-ACYAACIEALIRAAQEQQEKNEAALR-NH2
# modifications: linker 2-6 via 1,4‑dimethylnaphthyl
# B10: peptide 77 (peptide)
# peptide: Ac-A[hCys]YAA[hCys]IEALIRAAQEQQEKNEAALR-NH2
# modifications: linker 2-6 via B1; reading uncertain
# B11: peptide 83 (peptide)
# peptide: Ac-ACYAA[dC]IEALIRAAQEQQEKNEAALR-NH2
# modifications: linker 2-6 via pXylylene; not fully specified
# B12: peptide 86 (peptide)
# peptide: Hexanoyl-ECYLACIEELIRKAQEQQEKNEAALR-NH2
# modifications: linker 2-6 via pXylylene
# SMILES: CCCCCC(=O)N[C@@H](CCC(=O)O)C(=O)N[C@H]1CSCc2ccc(cc2)CSC[C@@H](C(=O)N[C@H](C(=O)N[C@@H](CCC(=O)O)C(=O)N[C@@H](CCC(=O)O)C(=O)N[C@@H](CC(C)C)C(=O)N[C@H](C(=O)N[C@@H](CCCNC(=N)N)C(=O)N[C@@H](CCCCN)C(=O)N[C@@H](C)C(=O)N[C@@H](CCC(N)=O)C(=O)N[C@@H](CCC(=O)O)C(=O)N[C@@H](CCC(N)=O)C(=O)N[C@@H](CCC(N)=O)C(=O)N[C@@H](CCC(=O)O)C(=O)N[C@@H](CCCCN)C(=O)N[C@@H](CC(N)=O)C(=O)N[C@@H](CCC(=O)O)C(=O)N[C@@H](C)C(=O)N[C@@H](C)C(=O)N[C@@H](CC(C)C)C(=O)N[C@@H](CCCNC(=N)N)C(N)=O)[C@@H](C)CC)[C@@H](C)CC)NC(=O)[C@H](C)NC(=O)[C@H](CC(C)C)NC(=O)[C@H](Cc2ccc(O)cc2)NC1=O
# B13: peptide 76 (peptide)
# peptide: Ac-[dA]CYAACIEALIRAAQEQQEKNEAAL[dR]-NH2
# modifications: linker 2-6 via 2,7‑dimethylnaphthyl
# Target: gp41 of HIV-1 strain HXB2D with mutation V38A (HIV-1 strain HXB2D, UniProt P04578)
# Assay: cell-based or functional assay
row,Binder,"fold change in EC50, HIV-HXB2D V38A mutant [fold]"
1,B1,40
2,B2,27
3,B3,1
4,B4,53
5,B5,9
6,B6,61
7,B7,1
8,B8,3
9,B9,75
10,B10,39
11,B11,6
12,B12,2
13,B13,48
